Target: MCM8-9 complex, purified (human, UniProt Q9NXL9-1 1-1143; Q9UJA3-1 1-840)
Assay: cell-based or functional assay

Sequence of MCM8-9 complex, purified (Q9NXL9 whole entry, chain 1 of 2): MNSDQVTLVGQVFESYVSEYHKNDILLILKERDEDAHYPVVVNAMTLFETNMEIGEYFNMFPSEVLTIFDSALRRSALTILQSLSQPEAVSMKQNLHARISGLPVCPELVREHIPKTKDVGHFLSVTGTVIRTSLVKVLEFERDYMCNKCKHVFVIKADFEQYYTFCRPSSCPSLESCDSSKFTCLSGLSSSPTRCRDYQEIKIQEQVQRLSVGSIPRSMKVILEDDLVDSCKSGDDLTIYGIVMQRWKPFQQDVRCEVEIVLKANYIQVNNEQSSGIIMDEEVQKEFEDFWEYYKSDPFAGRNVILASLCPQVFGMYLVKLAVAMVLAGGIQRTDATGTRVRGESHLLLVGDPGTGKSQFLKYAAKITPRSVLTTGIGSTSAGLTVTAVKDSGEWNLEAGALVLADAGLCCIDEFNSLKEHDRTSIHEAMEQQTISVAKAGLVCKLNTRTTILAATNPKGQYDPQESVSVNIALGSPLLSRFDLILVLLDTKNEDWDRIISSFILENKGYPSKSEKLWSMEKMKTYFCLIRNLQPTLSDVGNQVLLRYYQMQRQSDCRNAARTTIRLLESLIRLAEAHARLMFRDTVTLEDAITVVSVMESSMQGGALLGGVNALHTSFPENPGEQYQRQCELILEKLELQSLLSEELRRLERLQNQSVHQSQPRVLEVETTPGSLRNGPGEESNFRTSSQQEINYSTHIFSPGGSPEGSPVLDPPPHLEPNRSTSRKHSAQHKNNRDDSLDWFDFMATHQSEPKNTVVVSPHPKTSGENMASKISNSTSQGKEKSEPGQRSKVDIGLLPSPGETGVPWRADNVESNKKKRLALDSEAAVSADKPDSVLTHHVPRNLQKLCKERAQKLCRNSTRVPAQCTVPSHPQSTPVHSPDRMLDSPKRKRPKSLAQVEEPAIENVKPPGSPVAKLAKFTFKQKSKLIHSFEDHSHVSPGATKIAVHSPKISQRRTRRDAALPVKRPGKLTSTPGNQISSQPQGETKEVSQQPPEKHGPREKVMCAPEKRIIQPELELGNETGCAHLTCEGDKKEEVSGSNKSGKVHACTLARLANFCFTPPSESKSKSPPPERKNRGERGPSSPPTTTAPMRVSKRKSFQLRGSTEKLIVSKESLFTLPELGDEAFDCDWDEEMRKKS
Sequence of MCM8-9 complex, purified (Q9UJA3 whole entry, chain 2 of 2): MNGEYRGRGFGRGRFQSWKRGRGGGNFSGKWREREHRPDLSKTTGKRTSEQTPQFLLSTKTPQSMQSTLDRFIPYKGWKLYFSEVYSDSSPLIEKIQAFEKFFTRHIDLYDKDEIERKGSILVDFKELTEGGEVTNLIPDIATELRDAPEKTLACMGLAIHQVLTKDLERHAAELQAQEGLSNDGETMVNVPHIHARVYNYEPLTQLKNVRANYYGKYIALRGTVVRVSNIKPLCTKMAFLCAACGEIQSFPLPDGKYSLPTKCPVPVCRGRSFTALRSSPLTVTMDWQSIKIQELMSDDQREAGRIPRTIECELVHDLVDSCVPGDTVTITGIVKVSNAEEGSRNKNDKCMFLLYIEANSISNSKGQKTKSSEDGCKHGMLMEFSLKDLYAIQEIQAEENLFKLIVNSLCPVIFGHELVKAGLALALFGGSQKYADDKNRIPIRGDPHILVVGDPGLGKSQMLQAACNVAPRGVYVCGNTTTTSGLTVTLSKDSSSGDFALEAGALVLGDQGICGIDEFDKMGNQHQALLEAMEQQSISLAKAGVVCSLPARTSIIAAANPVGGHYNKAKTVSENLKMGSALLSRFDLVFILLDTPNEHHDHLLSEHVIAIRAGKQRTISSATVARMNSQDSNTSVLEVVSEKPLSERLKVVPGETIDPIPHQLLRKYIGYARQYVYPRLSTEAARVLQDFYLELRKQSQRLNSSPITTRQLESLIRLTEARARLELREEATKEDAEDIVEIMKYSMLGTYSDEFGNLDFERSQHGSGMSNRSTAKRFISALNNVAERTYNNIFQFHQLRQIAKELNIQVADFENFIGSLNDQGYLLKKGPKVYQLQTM

DNA unwinding (helicase assay): 32P-labelled oligo annealed to M13mp18 ssDNA, MCM8-9 100 nM, MCM8IP 50 nM, with ATP: ~6 fold
B1: MCM8IP-FLAG WT (recombinant) (natural protein, human, UniProt Q8N3J3-4 1-646, looked up)
chain: MACSLQKLFAVEEEFEDEDFLSAVEDAENRFTGSLPVNAGRLRPVSSRPQETVQAQSSRLLLLHPTAPSEALGLPDLDLCLPASSTPSADSRPSCIGAAPLRPVSTSSSWIGNQRRVTVTEVLRETARPQSSALHPLLTFESQQQQVGGFEGPEQDEFDKVLASMELEEPGMELECGVSSEAIPILPAQQREGSVLAKKARVVDLSGSCQKGPVPAIHKAGIMSAQDESLDPVIQCRTPRPPLRPGAVGHLPVPTALTVPTQQLHWEVCPQRSPVQALQPLQAARGTIQSSPQNRFPCQPFQSPSSWLSGKAHLPRPRTPNSSCSTPSRTSSGLFPRIPLQPQAPVSSIGSPVGTPKGPQGALQTPIVTNHLVQLVTAASRTPQQPTHPSTRAKTRRFPGPAGILPHQQSGRSLEDIMVSAPQTPTHGALAKFQTEIVASSQASVEEDFGRGPWLTMKSTLGLDERDPSCFLCTYSIVMVLRKAALKQLPRNKVPNMAVMIKSLTRSTMDASVVFKDPTGEMQGTVHRLLLETCQNELKPGSVLLLKQIGVFSPSLRNHYLNVTPNNLVHIYSPDSGDGSFLKPSQPFPKDSGSFQHDVAAKPEEGFRTAQNLEAEASPEEELPEADDLDGLLSELPEDFFCGTSS
